# Laboratory results from patent publication US12338268B2, “Compositions and methods for treating protein aggregation-associated diseases” (The Board of Trustees of the Leland Stanford Junior …, priority 2019, dated 2025).
# Target: T1, FlucDM-EGFP (Photinus pyralis, UniProt P08659, R188Q/R261Q)
# T1 construct: expressed in transfected cells; host or cells: C. elegans muscle cells (transgenic strain, unc-54 promoter)
# Test: FlucDM-EGFP aggregation after heat-shock in C. elegans
# Format: in vivo
# Details: overexpressed in muscle cells; heat-shock 1 h, 33° C.; 24 h recovery at 20° C.
# Protocol: We further investigated NAC activity on luciferase refolding in vivo using a C. elegans strain expressing a structurally destabilized version of luciferase fused to EGFP (FlucDM-EGFP) in muscle cells (Gupta et al., 2011). This protein is soluble at moderate temperature but aggregates upon heat stress. After heat-shock (1 h, 33° C.) of worms, FlucDM-EGFP formed large punctate aggregates which were still evident in control animals after 24 h recovery at 20° C. (FIG. 4B, “ev”). […] Thus, efficient luciferase refolding by NAC depends on N-βNAC, in vitro and in vivo.
# Worms were cultured according to standard techniques with E. coli OP50 as food source (Brenner, 1974). Transgenic strains were generated using standard microinjection protocols (Mello and Fire, 1995). Constructs for overexpression of NAC in body wall muscles were generated by cloning the coding sequences of icd-1 (βNAC) and icd-2 (αNAC) into a vector containing the myo-3 promoter and the unc-54 3′-untranslated region (UTR). The NAC genes were N-terminally tagged with 3×FLAG. Mutant NAC constructs were generated by standard mutagenesis protocols. AM140 (unc-54p::Q35::YFP) and FlucDM-EGFP (unc-54p::luciferase::GFP) worms were injected with 25 ng/μl of each NAC plasmid together with myo-2p::mCherry (2.5 ng/μl) and DNA ladder (100 ng/μl, GeneRuler 1 kb, Thermo Scientific). […]
# T1 sequence (P08659 whole entry R188Q/R261Q): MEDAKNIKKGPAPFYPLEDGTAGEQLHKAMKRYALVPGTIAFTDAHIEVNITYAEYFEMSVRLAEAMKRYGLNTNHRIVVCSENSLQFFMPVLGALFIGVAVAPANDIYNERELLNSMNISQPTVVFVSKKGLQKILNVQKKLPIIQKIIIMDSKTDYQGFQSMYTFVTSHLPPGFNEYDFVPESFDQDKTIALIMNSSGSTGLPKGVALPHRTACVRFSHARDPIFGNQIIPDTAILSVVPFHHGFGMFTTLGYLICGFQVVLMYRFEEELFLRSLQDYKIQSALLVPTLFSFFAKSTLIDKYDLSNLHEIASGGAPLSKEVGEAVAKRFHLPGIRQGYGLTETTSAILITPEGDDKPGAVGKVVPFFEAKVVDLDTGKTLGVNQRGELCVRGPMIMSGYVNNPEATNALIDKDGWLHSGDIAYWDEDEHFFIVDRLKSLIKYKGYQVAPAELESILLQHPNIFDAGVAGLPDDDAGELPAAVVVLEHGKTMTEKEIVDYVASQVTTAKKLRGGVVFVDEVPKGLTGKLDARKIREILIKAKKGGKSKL
molecule,measurement,value
"NAC: nascent polypeptide-associated complex, heterodimer of αNAC and βNAC; species not given at the place (C. elegans icd-1/icd-2 when overexpressed in worms) (protein) chain 1: MTGSTETRQKEVKEPQVDVSDDSDNEAVEQELTEEQRRVAEAAGLGDHIDKQAKQSRSEKKARKLFSKLGLKQVTGVSRVCIRKSKNILFVINKPDVFKSPGSDTYIIFGEAKIEDLTQHAQMSAIENLKPTREAPQLKTVEEDENEDVEEDSTGIEEKDIELVISQANTTRNKAIRALKEADNDIVNAIMSLTM chain 2: MMDSKAIAERIKKLQAQQEHVRIGGKGTPRRKKKVIHKTAAADDKKLQSNLKKLSVTNIPGIEEVNMIKDDGTVIHFNNPKVQTSVPANTFSVTGSADNKQITEMLPGILNQLGPESLTHLKKLANNVTKLGPDGKGEDEDVPELVGDFDAASKNETKADEQ",FlucDM-EGFP aggregates after heat-shock and recovery,fully revert back to diffuse GFP signal
